Experimental findings from patent US20210324099A1 (Chugai, published 2021) are described below.

As usually defined, the Kd is a measure of binding affinity in units of concentration. Higher therefore signals a looser complex.

Assay [1] deals with T1, hFcgRIIIaV (human, UniProt P08637 17-208).
T1 construct: extracellular domain; also called human FcγRIIIa allotype V158
As to the kind of experiment: SPR 25C.
Description: (§1) Biacore T200 (GE Healthcare) was used to evaluate the binding activity to the respective human Fcγ receptor (hereafter referred to as FcγR). Measurement was performed at 25° C. using 50 mM phosphate, 150 mM NaCl, 0.05 w/v %-P20, pH 7.4 as buffer. About 1000 RU of antibody was captured using a sensor chip immobilized with CaptureSelect™ Human Fab-lambda Kinetics Biotin Conjugate (Thermo Fisher Scientific) as a molecule for ligand capturing. Human FcγR was diluted to 8 nM for FcγRIa and 1000 nM for other FcγR in the measurement buffer, and it was interacted to the captured antibody. The binding activity of each antibody to FcγR was assessed by calculating the binding amount of FcγR (RU) per unit amount of antibody using Biacore T200 Evaluation Software 2.0.

For assay [2], the target named is T2, hFcgRIIIaF (human, UniProt P08637 17-208).
T2 construct: extracellular domain; also called human FcγRIIIa allotype F158
T2 sequence (P08637 17-208): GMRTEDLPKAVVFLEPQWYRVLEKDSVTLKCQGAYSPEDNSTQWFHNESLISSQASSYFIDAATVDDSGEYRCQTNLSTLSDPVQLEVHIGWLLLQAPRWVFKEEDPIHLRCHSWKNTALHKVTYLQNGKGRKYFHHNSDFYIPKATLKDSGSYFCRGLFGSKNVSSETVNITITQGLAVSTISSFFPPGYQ
The assay can be described thus: SPR 25C.
Description: as §1

The target of assay [3] is T3, hFcgRIa (human, UniProt P12314 16-292).
T3 construct: extracellular domain; also called human FcγRIa; FcγRI
T3 sequence (P12314 16-292): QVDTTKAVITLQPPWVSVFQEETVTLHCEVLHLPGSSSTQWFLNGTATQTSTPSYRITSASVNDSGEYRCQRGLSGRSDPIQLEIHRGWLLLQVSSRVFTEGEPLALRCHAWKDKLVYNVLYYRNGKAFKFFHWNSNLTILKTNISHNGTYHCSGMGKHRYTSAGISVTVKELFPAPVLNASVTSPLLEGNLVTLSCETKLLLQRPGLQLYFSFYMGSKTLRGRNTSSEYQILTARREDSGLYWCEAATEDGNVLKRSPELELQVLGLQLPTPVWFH
The assay can be described thus: SPR 25C.
Description: as §1

Assay [4] has as its target T4, hFcgRIIaH (human, UniProt P12318 34-217).
T4 construct: extracellular domain; also called human FcγRIIa type H (H131)
T4 sequence (looked up): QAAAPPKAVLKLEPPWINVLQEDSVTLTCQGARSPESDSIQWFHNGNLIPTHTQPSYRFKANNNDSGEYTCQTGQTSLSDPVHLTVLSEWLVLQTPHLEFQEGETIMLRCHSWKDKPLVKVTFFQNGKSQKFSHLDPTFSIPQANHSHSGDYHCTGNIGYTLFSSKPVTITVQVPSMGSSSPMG
The assay can be described thus: SPR 25C.
Description: as §1

The target of assay [5] is T5, hFcgRIIaR (human, UniProt P12318 34-217).
T5 construct: extracellular domain; also called human FcγRIIa type R (R131)
T5 sequence (looked up): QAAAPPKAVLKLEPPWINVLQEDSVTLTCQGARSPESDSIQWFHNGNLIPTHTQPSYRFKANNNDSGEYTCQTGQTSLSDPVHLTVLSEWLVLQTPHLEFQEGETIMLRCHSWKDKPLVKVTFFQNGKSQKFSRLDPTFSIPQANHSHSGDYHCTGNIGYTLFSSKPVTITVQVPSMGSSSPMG
As to the kind of experiment: SPR 25C.
Description: as §1

In assay [6] the target is T6, hFcgRIIb (human, UniProt P31994 43-217).
T6 construct: extracellular domain; also called human FcγRIIb
T6 sequence (looked up): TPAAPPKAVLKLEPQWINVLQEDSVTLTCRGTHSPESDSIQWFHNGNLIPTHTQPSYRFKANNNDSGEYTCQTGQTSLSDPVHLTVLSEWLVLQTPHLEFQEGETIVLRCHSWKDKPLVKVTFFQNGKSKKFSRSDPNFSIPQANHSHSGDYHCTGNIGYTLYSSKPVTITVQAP
As to the kind of experiment: SPR 25C.
Description: as §1

Assay [7] addresses T1, hFcgRIIIaV. The assay can be described thus: SPR 25C; relative to A375-G1T3/B167-Lamlib.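 Also: SPR with antibody captured on an anti-human Fab-lambda chip, human FcγR analyte at 8 nM for FcγRIa or 1000 nM for the others, pH 7.4, FcγR RU per captured antibody unit.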
Description: as §1
The target in assay [8] is T2, hFcgRIIIaF. As to the kind of experiment: SPR 25C; relative to A375-G1T3/B167-Lamlib.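 Also: SPR with antibody captured on an anti-human Fab-lambda chip, human FcγR analyte at 8 nM for FcγRIa or 1000 nM for the others, pH 7.4, FcγR RU per captured antibody unit.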
Description: as §1
In assay [9] the target is T3, hFcgRIa. The assay can be described thus: SPR 25C; relative to A375-G1T3/B167-Lamlib.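 Also: SPR with antibody captured on an anti-human Fab-lambda chip, human FcγR analyte at 8 nM for FcγRIa or 1000 nM for the others, pH 7.4, FcγR RU per captured antibody unit.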
Description: as §1
The target in assay [10] is T4, hFcgRIIaH. The assay can be described thus: SPR 25C; relative to A375-G1T3/B167-Lamlib.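 Also: SPR with antibody captured on an anti-human Fab-lambda chip, human FcγR analyte at 8 nM for FcγRIa or 1000 nM for the others, pH 7.4, FcγR RU per captured antibody unit.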
Description: as §1
Assay [11] concerns the target T5, hFcgRIIaR. As to the kind of experiment: SPR 25C; relative to A375-G1T3/B167-Lamlib.
Description: as §1
The target of assay [12] is T6, hFcgRIIb. The assay can be described thus: SPR 25C; relative to A375-G1T3/B167-Lamlib.
Description: as §1
Assay [13] deals with human FcRn (human, UniProt P55899 24-290; P61769 21-119, limits assumed). The assay can be described thus: SPR 25C pH 6.0, steady state.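 Also: antibody captured on chip via anti-human Fab-lambda ligand, human FcRn injected as analyte in 50 mM phosphate buffer with 150 mM NaCl and P20.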
Chain of human FcRn (P55899 24-290 limits assumed, chain 1 of 2): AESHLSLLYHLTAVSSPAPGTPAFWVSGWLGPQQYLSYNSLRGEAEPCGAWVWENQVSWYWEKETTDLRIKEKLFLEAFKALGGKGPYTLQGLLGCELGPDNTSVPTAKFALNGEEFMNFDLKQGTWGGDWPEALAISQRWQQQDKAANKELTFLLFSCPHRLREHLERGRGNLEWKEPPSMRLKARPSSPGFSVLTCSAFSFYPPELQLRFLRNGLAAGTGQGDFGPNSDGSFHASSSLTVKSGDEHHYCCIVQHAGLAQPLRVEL
Chain of human FcRn (P61769 21-119 limits assumed, chain 2 of 2): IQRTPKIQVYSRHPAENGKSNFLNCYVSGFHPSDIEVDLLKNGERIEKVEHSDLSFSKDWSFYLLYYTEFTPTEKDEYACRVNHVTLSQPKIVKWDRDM
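For binding per 1RU of antibody in this document: biacore SPR with antibody captured on an anti-human Fab lambda chip, human FcγR injected at 1000 nM (FcγRIa at 8 nM) in pH 7.4 phosphate buffer.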
Description: Biacore T200 (GE Healthcare) was used to assess the binding activity to human FcRn. Measurement was performed at 25° C. using 50 mM phosphate, 150 mM NaCl, 0.05 w/v %-P20, pH 6.0 as buffer. […] About 400 RU of antibody was captured using a sensor chip immobilized with CaptureSelect™ Human Fab-lambda Kinetics Biotin Conjugate (Thermo Fisher Scientific) as a molecule for ligand capturing, followed by the binding of human FcRn diluted in measuring buffer. The activity of the respective antibodies to bind FcRn was assessed by calculating KD (mol/L) by the steady-state model using Biacore T200 Evaluation Software 2.0.

T1 sequence (P08637 17-208 F176V): as the sequence (P08637 17-208) above, with F160V counted along it

B1: A375-MY201a/B167-Lamlib (antibody, human IgG1, lambda)
heavy: EVQLVESGGGLVKPGGSLRLSCAASGFTFSTFTMNWVRQAPGKGLEWVSSISSKSTYIEYADSFKVRFTISRDNAKNSLYLQMNSLRAEDTAVYYCARYGAKNFLNWVFDYWGQGTLVTVSSASTKGPSVFPLAPSSKSTSGGTAALGCLVKDYFPEPVTVSWNSGALTSGVHTFPAVLQSSGLYSLSSVVTVPSSSLGTQTYICNVNHKPSNTKVDKRVEPKSCDKTHTCPPCPAPELLNGPSVFLFPPKPKDTLMISRTPEVTCVVVDVSDEDPEVKFNWYVDGVEVHNAKTKPREEQYNSTYRVVSVLTVLHQDWLNGKEYKCKVSNKALPKPIEKTISKAKGQPREPQVYTLPPSREEMTKNQVSLTCLVKGFYPSDIAVEWESNGQPENNYKTTPPVLDSDGSFFLYSKLTVDKSRWQQGNVFSCSVMHEALHNHYTQKSLSLSP
light: QSALTQPPSASGSPGQTVTISCTGTRYDVGYYEYVSWYQQHPGKAPKLMIYETSKRLSGVPDRFSGSKSGNTASLTVSGLQAEDEADYYCSSYRYEHQVSFGGGTKLTVLGQPKAAPSVTLFPPSSEELQANKATLVCLISDFYPGAVTVAWKADSSPVKAGVETTTPSKQSNNKYAASSYLSLTPEQWKSHRSYSCQVTHEGSTVEKTVAPTECS
notes: copies: 2 + 2
Take B1: the “binding per 1RU of antibody” value is 0.0024 RU in assay [1]; 0.0007 RU in assay [2]; 0.0396 RU in assay [3]; 0.0534 RU in assay [4]; 0.0338 RU in assay [5]; 0.0401 RU in assay [6]. Besides, the relative binding amount in [7] turned out to be 0.03; in assay [8], 0.04; in assay [9] it was 0.49; in assay [10], 0.94; in [11], 0.73; in assay [12], 3.66. The same molecule yielded a Kd in [13] of 1190 nM.

B2: A375-MY201aPh/B167-Lamlib (antibody, human IgG1, lambda)
heavy: EVQLVESGGGLVKPGGSLRLSCAASGFTFSTFTMNWVRQAPGKGLEWVSSISSKSTYIEYADSFKVRFTISRDNAKNSLYLQMNSLRAEDTAVYYCARYGAKNFLNWVFDYWGQGTLVTVSSASTKGPSVFPLAPSSKSTSGGTAALGCLVKDYFPEPVTVSWNSGALTSGVHTFPAVLQSSGLYSLSSVVTVPSSSLGTQTYICNVNHKPSNTKVDKRVEPKSCDKTHTCPPCPAPELWNGPSVFLFPPKPKDTLMISRTPEVTCVVVDVSDEDPEVKFNWYVDGVEVHNAKTKPREEQYNSTYRVVSVLTVLHQDWLNGKEYKCKVSNKALPKPIEKTISKAKGQPREPQVYTLPPSREEMTKNQVSLTCLVKGFYPSDIAVEWESNGQPENNYKTTPPVLDSDGSFFLYSKLTVDKSRWQQGNVFSCSVMHEALHNHYTQKSLSLSP
light: QSALTQPPSASGSPGQTVTISCTGTRYDVGYYEYVSWYQQHPGKAPKLMIYETSKRLSGVPDRFSGSKSGNTASLTVSGLQAEDEADYYCSSYRYEHQVSFGGGTKLTVLGQPKAAPSVTLFPPSSEELQANKATLVCLISDFYPGAVTVAWKADSSPVKAGVETTTPSKQSNNKYAASSYLSLTPEQWKSHRSYSCQVTHEGSTVEKTVAPTECS
notes: copies: 2 + 2
As to B2, the “binding per 1RU of antibody” value in assay [1] was 0.0011 RU; in assay [2], 0.0007 RU; in [3], 0.004 RU; in assay [4], 0.0328 RU; in [5], 0.0335 RU; in assay [6], 0.0313 RU. Besides, the relative binding amount is 0.02 in assay [7]; 0.03 in assay [8]; 0.05 in assay [9]; 0.58 in assay [10]; 0.72 in [11]; 2.85 in [12]. This molecule also yielded a Kd in assay [13] of 1180 nM.
